Data reported in patent publication US20130058955A1 (Genentech, published 2013).
Substitutions are numbered along the chain they refer to. Names and notes keep the numbering of the source. Values joined by “and” are separate entries in the source; they are usually repeats but may differ in a detail not shown here. Equal values may be shown once. Read-outs that look alike come from different tables or passages of the source.

How the values were obtained:
[1] = target: T1, linear diubiquitin (Boston Biochem) (human, UniProt P0CG48 1-152); experiment: western blot, 1 ug/mL IgG, LI-COR Odyssey quantification; Ub2 bands seen at 333 (faint) and 1000 ng
T1 construct: Bought product
Method: (§1) Gels were transferred at 30 V constant for 1 hour by wet transfer in 10% methanol and 1× NuPAGE transfer buffer (Invitrogen) to 0.2 μm nitrocellulose (Invitrogen). Non-specific binding sites on the membranes were blocked by incubation in 5% milk in PBST for 1 hour at 25° C. with shaking. […] The membranes were washed three times in PBST with shaking. The IgGs were detected by incubating the membrane in a 1:10,000 dilution of a goat anti-human Fc fragment-specific IR Dye 800CW-conjugated secondary antibody (Rockland Immunochemicals) in 5% milk in PBST for 30 minutes at 25° C. with shaking. The membranes were then washed three times in PBST followed by one wash in PBS. The secondary antibody was detected and quantified using the L1-COR Odyssey infrared imaging system (L1-COR Biosciences).

[2] = target: T1, linear diubiquitin (Boston Biochem); experiment: phage IC50 competition ELISA with soluble linear diubiquitin
Method: An initial titer ELISA was done to determine the amount of phage at which a signal of OD₄₅₀=0.5 would be achieved. […] The coated plates were blocked with 200 μL/well of 2.5% milk in PBST for one hour at 25° C. with shaking. Twelve two-fold serial dilutions of the phage were made in 2.5% milk in PBST from OD₂₆₈=4.0 to OD₂₆₈=0.002. After one hour, the blocking buffer was dumped off of the plate and 100 μL/well of each phage dilution was added and incubated at 25° C. for 15 minutes with shaking. The plate was then washed six times with PBST using a plate washer. A 1:5000 dilution of an anti-M13 phage-HRP-conjugated secondary antibody (GE Healthcare) in PBST was used for detection of phage binding. 100 μL/well of the secondary dilution was added and the plate was incubated at 25° C. for 30 minutes with shaking. The plate was then washed 12 times with PBST using a plate washer and twice with PBS manually. Bound secondary antibody was detected using a TMB substrate (KPL) followed by quenching with an equal volume of 1 M phosphoric acid.

[3] = target: T2, monoubiquitin (Boston Biochem) (human, UniProt P0CG48 1-76); experiment: phage specificity ELISA, 1 ug/mL coated antigen, anti-M13-HRP
T2 construct: Bought product
Method: (§2) The panel of ubiquitin proteins was immobilized on 96-well Maxisorb immunoplates (NUNC) (see FIGS. 7A and 7B). Plates were coated at 4° C. overnight with 1 μg/mL of each protein in 50 mM sodium carbonate buffer, pH 9.6. The coated plates were blocked with 200 μL/well of 2.5% milk in PBST for one hour at 25° C. with shaking. Six two-fold serial dilutions of phage from OD₂₆₈=1.0 to OD₂₆₈=0.03 were made in 2.5% milk in PBST. After one hour, the blocking buffer was dumped off of the plate and 100 μL of the phage serial dilutions was added. Plates were incubated at 25° C. for one hour with shaking. The plate was then washed six times with PBST using a plate washer. A 1:5,000 dilution of an anti-M13 horseradish peroxidase (HRP)-conjugated secondary antibody (GE Healthcare) in PBST was used for detection of phage binding. […] The plate was then washed six times with PBST using a plate washer and twice manually with PBS. Bound secondary antibody was detected using a TMB substrate (KPL) followed by quenching with an equal volume of 1 M phosphoric acid. The absorbance was read at 450 nm.

[4] = target: T3, K48-linked diubiquitin (Boston Biochem) (human, UniProt P0CG48 1-76, isopeptide bond between the C-terminus of one ubiquitin and Lys48 of the other); experiment: as above
T3 construct: Bought product; also called K48 diUb
Method: as §2

[5] = target: T4, K11-linked diubiquitin (Genentech) (human, UniProt P0CG48 1-76, isopeptide bond between the C-terminus of one ubiquitin and Lys11 of the other); experiment: as above
T4 construct: also called K11 diUb
Method: as §2

[6] = target: T5, K63-linked diubiquitin (Boston Biochem) (human, UniProt P0CG48 1-76, isopeptide bond between the C-terminus of one ubiquitin and Lys63 of the other); experiment: western blot, 1 ug/mL IgG, LI-COR Odyssey
T5 construct: Bought product; also called K63 diUb

[7] = target: T5, K63-linked diubiquitin (Boston Biochem); experiment: western blot, 1 ug/mL IgG, LI-COR Odyssey; remark: listed apart in the source
Method: as §1

[8] = target: T1, linear diubiquitin (Boston Biochem); experiment: western blot, 1 ug/mL IgG, LI-COR Odyssey quantification; Ub2 bands seen at 111 (faint), 333 and 1000 ng
Method: as §1

[9] = target: T1, linear diubiquitin (Boston Biochem); experiment: as above; remark: listed apart in the source

B1: 1E3 IgG (antibody, V domains shown)
VH: EVQLVESGGGLVQPGGSLRLSCAASGFTFSNTYISWVRQAPGKGLEWVASITPSSGSTDYADSVKGRFTISADTSKNTAYLQMNSLRAEDTAVYYCARTWLLRWVMDYWGQGTLVTVSS
VL: DIQMTQSPSSLSASVGDRVTITCRASQDVSTAVAWYQQKPGKAPKLLIYSASFLYSGVPSRFSGSGSGTDFTLTISSLQPEDFATYYCQQSYTTPPTFGQGTKVEIK
notes: also called parental 1E3
[1]
  signal of the Ub2 band at 1000 ng linear diUb (number under the arrow): 8.7

B2: 3F5, Fab displayed on phage (Fab, V domains shown)
VH: B1 VH with S57Q
VL: B1 VL
notes: Monovalent Fab on M13 phage
[2]
  IC50: 12 nM and 9 nM and 13 nM
[3]
  binding result: no binding (tested: phage OD268 1)
[4]
  binding result: no binding (tested: phage OD268 1)
[5]
  binding result: no binding (tested: phage OD268 1)

B3: 1F11 IgG (antibody, V domains shown)
VH: B1 VH
VL: B1 VL with S52K
[1]
  signal of the Ub2 band at 1000 ng linear diUb (number under the arrow): 13.1

B4: 1F11, Fab displayed on phage (Fab, V domains shown)
VH: B1 VH
VL: B1 VL with S52K
notes: Monovalent Fab on M13 phage
[2]
  IC50: 14 nM

B5: 1F11/2C11/3F5 triple mutant IgG (antibody, name in Kabat numbering, V domains shown)
VH: B1 VH with S57Q
VL: B1 VL with S52K, T94Q
notes: human kappa IgG1
[6]
  binding result: no binding (tested: 1000 ng per lane)

B6: 1F11/3F5 IgG (antibody, V domains shown)
VH: B1 VH with S57Q
VL: B1 VL with S52K
notes: also called double mutant 1F11/3F5
[7]
  binding result: no binding (tested: 1000 ng per lane)

B7: 2C11 IgG (antibody, name in Kabat numbering, V domains shown)
VH: B1 VH
VL: B1 VL with T94Q
[7]
  binding result: no binding (tested: 1000 ng per lane)
[1]
  signal of the Ub2 band at 1000 ng linear diUb (number under the arrow): 10.8

B8: 2C11, Fab displayed on phage (Fab, name in Kabat numbering, V domains shown)
VH: B1 VH
VL: B1 VL with T94Q
notes: Light chain mutant of 1E3 (CDR L3); Monovalent Fab on M13 phage
[2]
  IC50: 20 nM
[3]
  binding result: no binding (tested: phage OD268 1)
[4]
  binding result: no binding (tested: phage OD268 1)
[5]
  binding result: no binding (tested: phage OD268 1)

B9: 2H5, Fab displayed on phage (Fab, name in Kabat numbering, V domains shown)
VH: B1 VH
VL: B1 VL with T94N
notes: as for B8
[2]
  IC50: 17 nM
[3]
  binding result: no binding (tested: phage OD268 1)
[4]
  binding result: no binding (tested: phage OD268 1)
[5]
  binding result: no binding (tested: phage OD268 1)

B10: 2H5/3F5 IgG (antibody, name in Kabat numbering, V domains shown)
VH: B1 VH with S57Q
VL: B1 VL with T94N
[8]
  signal of the Ub2 band at 1000 ng linear diUb (number under the arrow): 16.7
[6]
  binding result: no binding (tested: 1000 ng per lane)

B11: 3E4, Fab displayed on phage (Fab, name in Kabat numbering, V domains shown)
VH: B1 VH with I34M
VL: B1 VL
notes: Heavy chain mutant of 1E3 (CDR H1); Monovalent Fab on M13 phage
[2]
  IC50: 44 nM and 33 nM and 26 nM
[3]
  binding result: no binding (tested: phage OD268 1)
[4]
  binding result: no binding (tested: phage OD268 1)
[5]
  binding result: no binding (tested: phage OD268 1)

B12: 4G7, Fab displayed on phage (Fab, name in Kabat numbering, V domains shown)
VH: B1 VH with Y108G
VL: B1 VL
notes: Heavy chain mutant of 1E3 (H3); Monovalent Fab on M13 phage
[2]
  IC50: 23 nM and 16 nM and 19 nM
[3]
  binding result: no binding (tested: phage OD268 1)
[4]
  binding result: no binding (tested: phage OD268 1)
[5]
  binding result: no binding (tested: phage OD268 1)

B13: 1F11/2H5/3F5 triple mutant IgG (antibody, name in Kabat numbering, V domains shown)
VH: B1 VH with S57Q
VL: B1 VL with S52K, T94N
notes: human kappa IgG1
[6]
  binding result: no binding (tested: 1000 ng per lane)

B14: 1F11/3E4 double mutant, Fab displayed on phage (Fab, name in Kabat numbering, V domains shown)
VH: B1 VH with I34M
VL: B1 VL with S52K
[2]
  IC50: 12 nM

B15: 1F11/4G7 double mutant, Fab displayed on phage (Fab, name in Kabat numbering, V domains shown)
VH: B1 VH with Y108G
VL: B1 VL with S52K
[2]
  IC50: 13 nM

B16: 1F11/Y102L IgG (antibody, V domains shown)
VH: B1 VH with Y108L
VL: B1 VL with S52K
notes: human kappa IgG1
[9]
  signal of the Ub2 band at 1000 ng linear diUb (number under the arrow): 5.3

B17: 2C11/3E4 double mutant, Fab displayed on phage (Fab, name in Kabat numbering, V domains shown)
VH: B1 VH with I34M
VL: B1 VL with T94Q
[2]
  IC50: 24 nM

B18: 2C11/3F5 IgG (antibody, name in Kabat numbering, V domains shown)
VH: B1 VH with S57Q
VL: B1 VL with T94Q
[8]
  signal of the Ub2 band at 1000 ng linear diUb (number under the arrow): 13.1
[6]
  binding result: no binding (tested: 1000 ng per lane)

B19: 2C11/4G7 double mutant, Fab displayed on phage (Fab, name in Kabat numbering, V domains shown)
VH: B1 VH with Y108G
VL: B1 VL with T94Q
[2]
  IC50: 31 nM

B20: 2H5 IgG (antibody, name in Kabat numbering, V domains shown)
VH: B1 VH
VL: B1 VL with T94N
[7]
  binding result: no binding (tested: 1000 ng per lane)
[1]
  signal of the Ub2 band at 1000 ng linear diUb (number under the arrow): 10.4

B21: 2H5/3E4 double mutant, Fab displayed on phage (Fab, name in Kabat numbering, V domains shown)
VH: B1 VH with I34M
VL: B1 VL with T94N
[2]
  IC50: 26 nM

B22: 2H5/4G7 double mutant, Fab displayed on phage (Fab, name in Kabat numbering, V domains shown)
VH: B1 VH with Y108G
VL: B1 VL with T94N
[2]
  IC50: 23 nM

B23: 3F5 IgG (antibody, V domains shown)
VH: B1 VH with S57Q
VL: B1 VL
[7]
  binding result: no binding (tested: 1000 ng per lane)
[8]
  signal of the Ub2 band at 1000 ng linear diUb (number under the arrow): 16.4

B24: Y102L IgG (antibody, V domains shown)
VH: B1 VH with Y108L
VL: B1 VL
notes: human kappa IgG1; also called Y012L
[9]
  signal of the Ub2 band at 1000 ng linear diUb (number under the arrow): 5.4
